Our source for the normalized interacting score values is doi:10.1101/2024.05.21.594841 (bioRxiv, 2024).

What all share (experiment): split reporter
One assay deals with T1, Qcr2p (S. cerevisiae, UniProt P07257 17-368).
T1 sequence: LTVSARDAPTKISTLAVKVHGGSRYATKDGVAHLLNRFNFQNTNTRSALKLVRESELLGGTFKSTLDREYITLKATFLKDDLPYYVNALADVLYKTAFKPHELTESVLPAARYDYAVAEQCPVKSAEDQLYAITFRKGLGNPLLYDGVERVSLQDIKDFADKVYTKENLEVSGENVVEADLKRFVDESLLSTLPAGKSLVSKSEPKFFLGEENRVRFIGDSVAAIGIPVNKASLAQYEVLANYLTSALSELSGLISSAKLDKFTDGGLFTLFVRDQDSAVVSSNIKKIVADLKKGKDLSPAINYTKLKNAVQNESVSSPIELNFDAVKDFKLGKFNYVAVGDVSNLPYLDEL

The next assay has as its target T2, Sil1p (S. cerevisiae, UniProt Q08199 20-421).
T2 sequence: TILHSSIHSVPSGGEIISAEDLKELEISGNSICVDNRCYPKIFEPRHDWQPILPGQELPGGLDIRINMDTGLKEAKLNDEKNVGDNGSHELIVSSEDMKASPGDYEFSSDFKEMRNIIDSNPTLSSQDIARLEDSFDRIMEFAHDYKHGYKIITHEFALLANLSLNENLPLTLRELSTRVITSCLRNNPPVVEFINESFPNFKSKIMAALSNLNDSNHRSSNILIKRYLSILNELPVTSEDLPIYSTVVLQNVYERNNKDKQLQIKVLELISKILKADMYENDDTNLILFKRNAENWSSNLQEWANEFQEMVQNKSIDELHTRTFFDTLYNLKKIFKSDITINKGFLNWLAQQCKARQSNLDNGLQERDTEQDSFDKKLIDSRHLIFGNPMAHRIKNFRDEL

The target in another assay is T3, Scj1p (S. cerevisiae, UniProt P25303 22-377).
T3 sequence: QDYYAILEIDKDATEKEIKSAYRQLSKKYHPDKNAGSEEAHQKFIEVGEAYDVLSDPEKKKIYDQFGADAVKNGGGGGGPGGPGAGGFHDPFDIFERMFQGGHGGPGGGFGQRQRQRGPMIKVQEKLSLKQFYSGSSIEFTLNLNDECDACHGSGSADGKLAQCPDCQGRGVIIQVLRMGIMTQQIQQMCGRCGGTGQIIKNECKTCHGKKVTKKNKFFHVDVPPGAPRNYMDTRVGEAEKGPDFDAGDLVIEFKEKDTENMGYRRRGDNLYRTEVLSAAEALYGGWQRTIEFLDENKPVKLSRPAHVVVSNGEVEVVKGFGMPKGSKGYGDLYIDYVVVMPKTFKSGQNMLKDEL

The next assay concerns the target T4, Eug1p (S. cerevisiae, UniProt P32474 30-517).
T4 sequence: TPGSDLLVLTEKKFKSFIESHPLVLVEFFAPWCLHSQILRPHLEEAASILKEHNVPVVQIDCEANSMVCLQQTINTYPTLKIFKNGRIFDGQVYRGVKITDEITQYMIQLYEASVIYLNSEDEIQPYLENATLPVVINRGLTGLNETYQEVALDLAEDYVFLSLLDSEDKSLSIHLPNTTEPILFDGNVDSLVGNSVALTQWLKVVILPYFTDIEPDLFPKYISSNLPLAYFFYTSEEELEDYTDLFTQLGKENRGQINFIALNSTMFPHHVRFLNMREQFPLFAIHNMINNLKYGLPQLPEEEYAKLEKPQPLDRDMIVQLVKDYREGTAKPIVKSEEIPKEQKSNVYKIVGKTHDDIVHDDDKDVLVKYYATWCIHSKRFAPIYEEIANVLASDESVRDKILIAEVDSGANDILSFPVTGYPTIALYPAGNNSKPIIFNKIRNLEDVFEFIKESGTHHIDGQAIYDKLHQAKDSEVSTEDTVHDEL

B1: Lhs1p (natural protein)
chain: AVLGVDYGQQNIKAIVVSPQAPLELVLTPEAKRKEISGLSIKRLPGYGKDDPNGIERIYGSAVGSLATRFPQNTLLHLKPLLGKSLEDETTVTLYSKQHPGLEMVSTNRSTIAFLVDNVEYPLEELVAMNVQEIANRANSLLKDRDARTEDFVNKMSFTIPDFFDQHQRKALLDASSITTGIEETYLVSEGMSVAVNFVLKQRQFPPGEQQHYIVYDMGSGSIKASMFSILQPEDTTQPVTIEFEGYGYNPHLGGAKFTMDIGSLIENKFLETHPAIRTDELHANPKALAKINQAAEKAKLILSANSEASINIESLINDIDFRTSITRQEFEEFIADSLLDIVKPINDAVTKQFGGYGTNLPEINGVILAGGSSRIPIVQDQLIKLVSEEKVLRNVNADESAVNGVVMRGIKLSNSFKTKPLNVVDRSVNTYSFKLSNESELYDVFTRGSAYPNKTSILTNTTDSIPNNFTIDLFENGKLFETITVNSGAIKNSYSSDKCSSGVAYNITFDLSSDRLFSIQEVNCICQSENDIGNSKQIKNKGSRLAFTSEDVEIKRLSPSERSRLHEHIKLLDKQDKERFQFQENLNVLESNLYDARNLLMDDEVMQNGPKSQVEELSEMVKVYLDWLEDASFDTDPEDIVSRIREIGILKKKIELYMDSAKEPLNSQQFKGMLEEGHKLLQAIETHKNTVEEFLSQFETEFADTIDNVREEFKKIKQPAYVSKALSTWEETLTSFKNSISEIEKFLAKNLFGEDLREHLFEIKLQFDMYRTKLEEKLRLIKSGDESRLNEIKKLHLRNFRLQKRKEEKLKRKLEQEKSRNNNETESTVINSADDKTTIVNDKTTESNPSSEEDILHDEL
With B1, the normalized interacting score was 22% with Qcr2p, 93% with Sil1p, greater than 40% in the assay with Scj1p and greater than 40% with Eug1p.
